According to patent US20240400630A1:

How the values were obtained:
[1] = target: IL-15R on human PBMCs (NK cells, CD8+ T cells, CD4+ T cells) (human); assay: cell-based or functional assay
[2] = target: IL-2/IL-15 receptor on IL-2/IL-15-responsive HEK293 cells (human CD25 (IL-2Rα), CD122 (IL-2Rβ), CD132 (IL-2Rγ)) (human) (UniProt P01589); assay: cell-based or functional assay
Chain of IL-2/IL-15 receptor on IL-2/IL-15-responsive HEK293 cells (human CD25 (IL-2Rα), CD122 (IL-2Rβ), CD132 (IL-2Rγ)) (human) (P01589 22-272, chain 1 of 3): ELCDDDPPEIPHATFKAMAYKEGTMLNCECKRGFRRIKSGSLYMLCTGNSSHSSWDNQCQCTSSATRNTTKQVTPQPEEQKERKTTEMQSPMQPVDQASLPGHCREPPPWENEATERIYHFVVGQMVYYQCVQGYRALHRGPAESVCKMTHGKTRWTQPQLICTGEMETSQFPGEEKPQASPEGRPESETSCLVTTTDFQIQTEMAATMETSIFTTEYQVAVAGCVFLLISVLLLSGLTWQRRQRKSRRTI
Chain of IL-2/IL-15 receptor on IL-2/IL-15-responsive HEK293 cells (human CD25 (IL-2Rα), CD122 (IL-2Rβ), CD132 (IL-2Rγ)) (human) (P14784 27-551, chain 2 of 3, further chain): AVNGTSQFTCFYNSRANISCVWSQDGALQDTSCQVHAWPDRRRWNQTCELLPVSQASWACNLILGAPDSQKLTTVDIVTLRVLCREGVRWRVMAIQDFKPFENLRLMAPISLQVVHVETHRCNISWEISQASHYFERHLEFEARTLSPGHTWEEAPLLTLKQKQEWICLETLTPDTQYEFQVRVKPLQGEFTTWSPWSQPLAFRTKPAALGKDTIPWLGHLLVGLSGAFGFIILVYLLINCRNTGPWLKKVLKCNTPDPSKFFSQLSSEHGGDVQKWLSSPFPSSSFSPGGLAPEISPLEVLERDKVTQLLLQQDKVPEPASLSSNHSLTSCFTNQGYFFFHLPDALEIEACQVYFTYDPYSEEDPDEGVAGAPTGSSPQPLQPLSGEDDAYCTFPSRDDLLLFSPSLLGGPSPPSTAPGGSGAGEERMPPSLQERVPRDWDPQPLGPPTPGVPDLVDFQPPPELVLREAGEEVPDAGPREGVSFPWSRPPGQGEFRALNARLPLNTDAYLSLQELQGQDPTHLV
Chain of IL-2/IL-15 receptor on IL-2/IL-15-responsive HEK293 cells (human CD25 (IL-2Rα), CD122 (IL-2Rβ), CD132 (IL-2Rγ)) (human) (P31785 23-369, chain 3 of 3, further chain): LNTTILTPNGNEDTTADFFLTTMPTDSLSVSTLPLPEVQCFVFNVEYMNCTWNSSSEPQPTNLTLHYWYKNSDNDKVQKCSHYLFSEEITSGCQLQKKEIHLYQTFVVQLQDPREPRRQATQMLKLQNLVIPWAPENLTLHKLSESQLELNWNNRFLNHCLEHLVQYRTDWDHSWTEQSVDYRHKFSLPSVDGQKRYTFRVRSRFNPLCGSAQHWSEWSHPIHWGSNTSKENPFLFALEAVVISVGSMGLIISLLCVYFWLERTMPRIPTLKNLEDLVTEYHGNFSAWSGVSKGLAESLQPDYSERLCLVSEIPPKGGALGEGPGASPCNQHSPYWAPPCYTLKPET

EC50: Human PBMC Proliferation Ki67, CD4 [1]: 121 pM | EC50: Human PBMC Proliferation Ki67, CD8 [1]: 221 pM | EC50: Human PBMC Proliferation Ki67, NK Cells [1]: 4 pM | EC50: Human PBMC STAT5 Phosphorylation, CD4 [1]: 6.97 pM | EC50: Human PBMC STAT5 Phosphorylation, CD8 [1]: 6.4 pM | EC50: Human PBMC STAT5 Phosphorylation, NK cells [1]: 1.79 pM | EC50: HEK-Blue Reporter Assay [2]: 1.48 pM | EC50: HEK-Blue Reporter Assay (average, n>3) [2]: 1.46 pM
Substance: PeproTech IL-15 (Recombinant human IL-15, available from PeproTech, Catalog #200-15) (from UniProt P40933 49-162) (ligand)
